Columns and labels:
[1] = biological target: Detergent-soluble HLA-DR1 purified from LG-2 cells (DRB1*0101) (human)
[2] = biological target: Detergent-soluble HLA-DR2 purified from MGAR cells (DRB1*1501) (human)
[3] = biological target: Detergent-soluble HLA-DR4 purified from Priess cells (DRB1*0401) (human)

Substance	IC50 [1] [µM]	IC50 [2] [µM]	Kd [2] [µM]	Kd [1] [µM]	IC50 [3] [µM]	Kd [3] [µM]
TAL terpolymer (SD-1691), poly[L-Tyr 0.102, L-Ala 0.542, L-Lys 0.353] (peptide)	3.3	2.7	0.017	–	–	–
Copolymer 1 (peptide)	8.8	10.1	0.082	0.074	10.8	0.015
GTL terpolymer (SD-1697), poly[L-Tyr 0.162, L-Glu 0.259, L-Lys 0.579] (peptide)	43	25.4	–	0.004	43	0.008
TGA terpolymer (SD-1690), poly[L-Tyr 0.136, L-Glu 0.21, L-Ala 0.648] (peptide)	1.3	9.5	0.008	0.01	1	0.008
GAL terpolymer (SD-1689), poly[L-Glu 0.153, L-Ala 0.479, L-Lys 0.365] (peptide)	< 1000	< 1000	0.017	–	< 1000	0.003

From US20150030560A1
